Experimental data taken from US10800847.

Assays:
[1] = biological target: HLA-B*1501 (B62) (human); assay: iBead MFI against regular-bead MFI, IVIg diluted 1:8
[2] = biological target: HLA-B*1502 (B75) (human); assay: as above
[3] = biological target: HLA-B*0801 (B8) (human); assay: as above
[4] = biological target: HLA-Cw*0801 (Cw8) (human); assay: Luminex, iBeads (#6), 1:8
[5] = biological target: HLA-Cw*0702 (Cw7) (human); assay: Luminex, iBeads (#6), 1:8
[6] = biological target: HLA-Cw*1601 (Cw16) (human); assay: Luminex, iBeads (#6), 1:8
[7] = biological target: HLA-Cw*1802 (Cw18) (human); assay: Luminex, iBeads (#6), 1:8
[8] = biological target: HLA-Cw*1402 (Cw14) (human); assay: Luminex, iBeads (#6), 1:8
[9] = biological target: HLA-Cw*0304 (Cw10) (human); assay: Luminex, iBeads (#6), 1:8
[10] = biological target: Albumin (negative control beads) (human or bovine); assay: Luminex, iBeads (#6), 1:8
[11] = biological target: HLA-B*8201 (B82) (human); assay: Luminex, iBeads (#6), 1:8
[12] = biological target: HLA-Cw*1502 (Cw15) (human); assay: Luminex, iBeads (#6), 1:8
[13] = biological target: HLA-Cw*0302 (Cw10) (human); assay: Luminex, iBeads (#6), 1:8
[14] = biological target: HLA-Cw*1203 (Cw12) (human); assay: Luminex, iBeads (#6), 1:8
[15] = biological target: HLA-Cw*1701 (Cw17) (human); assay: Luminex, iBeads (#6), 1:8
[16] = biological target: HLA-Cw*0602 (Cw6) (human); assay: Luminex, iBeads (#6), 1:8
[17] = biological target: HLA-Cw*0303 (Cw9) (human); assay: Luminex, iBeads (#6), 1:8
[18] = biological target: HLA-Cw*0501 (Cw5) (human); assay: Luminex, iBeads (#6), 1:8
[19] = biological target: HLA-Cw*0702 (Cw7) (human); assay: Luminex, regular beads (#7), 1:8
[20] = biological target: HLA-Cw*1601 (Cw16) (human); assay: Luminex, regular beads (#7), 1:8
[21] = biological target: HLA-Cw*0401 (Cw4) (human); assay: Luminex, regular beads (#7), 1:8
[22] = biological target: HLA-Cw*1802 (Cw18) (human); assay: Luminex, regular beads (#7), 1:8
[23] = biological target: HLA-Cw*1402 (Cw14) (human); assay: Luminex, regular beads (#7), 1:8
[24] = biological target: HLA-Cw*0304 (Cw10) (human); assay: Luminex, regular beads (#7), 1:8
[25] = biological target: Albumin (negative control beads) (human or bovine); assay: Luminex, regular beads (#7), 1:8
[26] = biological target: HLA-Cw*0102 (Cw1) (human); assay: Luminex, regular beads (#7), 1:8
[27] = biological target: HLA-B*8201 (B82) (human); assay: Luminex, regular beads (#7), 1:8
[28] = biological target: HLA-Cw*1502 (Cw15) (human); assay: Luminex, regular beads (#7), 1:8
[29] = biological target: HLA-Cw*0302 (Cw10) (human); assay: Luminex, regular beads (#7), 1:8
[30] = biological target: HLA-Cw*1203 (Cw12) (human); assay: Luminex, regular beads (#7), 1:8
[31] = biological target: HLA-Cw*1701 (Cw17) (human); assay: Luminex, regular beads (#7), 1:8
[32] = biological target: HLA-Cw*0602 (Cw6) (human); assay: Luminex, regular beads (#7), 1:8
[33] = biological target: HLA-Cw*0303 (Cw9) (human); assay: Luminex, regular beads (#7), 1:8
[34] = biological target: HLA-Cw*0202 (Cw2) (human); assay: Luminex, regular beads (#7), 1:8
[35] = biological target: HLA-Cw*0501 (Cw5) (human); assay: Luminex, regular beads (#7), 1:8
[36] = biological target: HLA-B*1511 (B75) (human); assay: Luminex iBeads (#6), IVIg diluted 1:8
[37] = biological target: HLA-B*1503 (B72) (human); assay: Luminex iBeads (#6), IVIg diluted 1:8
[38] = biological target: HLA-B*1402 (B65) (human); assay: Luminex iBeads (#6), IVIg diluted 1:8
[39] = biological target: HLA-B*1516 (B63) (human); assay: Luminex iBeads (#6), IVIg diluted 1:8
[40] = biological target: HLA-B*1302 (B13) (human); assay: Luminex iBeads (#6), IVIg diluted 1:8
[41] = biological target: HLA-B*1501 (B62) (human); assay: Luminex iBeads (#6), IVIg diluted 1:8
[42] = biological target: HLA-B*1510 (B71) (human); assay: Luminex iBeads (#6), IVIg diluted 1:8
[43] = biological target: HLA-B*1502 (B75) (human); assay: Luminex iBeads (#6), IVIg diluted 1:8
[44] = biological target: HLA-B*1301 (B13) (human); assay: Luminex iBeads (#6), IVIg diluted 1:8
[45] = biological target: HLA-B*1801 (B18) (human); assay: Luminex iBeads (#6), IVIg diluted 1:8
[46] = biological target: HLA-B*0702 (B7) (human); assay: Luminex iBeads (#6), IVIg diluted 1:8
[47] = biological target: HLA-B*1513 (B77) (human); assay: Luminex iBeads (#6), IVIg diluted 1:8
[48] = biological target: HLA-B*1512 (B76) (human); assay: Luminex iBeads (#6), IVIg diluted 1:8
[49] = biological target: HLA-B*0801 (B8) (human); assay: Luminex iBeads (#6), IVIg diluted 1:8
[50] = biological target: Serum albumin on negative control beads (HSA/BSA) (human or bovine); assay: Luminex iBeads (#6), IVIg diluted 1:8

Substance IVIg Gamunex-C Lot NKLK1 (antibody) has a Difference % (iBead vs regular bead) [1] of 253%, a Difference % (iBead vs regular bead) [2] of -94% and a Difference % (iBead vs regular bead) [3] of -100%. It also gave an MFI [4] of 467 MFI, an MFI [5] of 2400 MFI and an MFI [6] of 1560 MFI. For the same substance, the MFI [7] was 1480 MFI, the MFI [8] was 1070 MFI and the MFI [9] was 1820 MFI. It also gave an MFI [10] of 7800 MFI, an MFI [11] of -193 MFI and an MFI [12] of 1200 MFI. The MFI [13] was 1770 MFI, the MFI [14] was 1950 MFI and the MFI [15] was 3250 MFI. The MFI [16] was 2110 MFI, the MFI [17] was 1660 MFI and the MFI [18] was 2020 MFI. It also gave an MFI [19] of 10500 MFI, an MFI [20] of 6850 MFI and an MFI [21] of 6480 MFI. For the same substance, the MFI [22] was 7160 MFI, the MFI [23] was 6160 MFI and the MFI [24] was 4430 MFI. The MFI [25] was 10300 MFI, the MFI [26] was 4310 MFI and the MFI [27] was 4780 MFI. The MFI [28] was 3690 MFI, the MFI [29] was 4130 MFI and the MFI [30] was 5610 MFI. For the same substance, the MFI [31] was 5640 MFI, the MFI [32] was 10600 MFI and the MFI [33] was 3020 MFI. For the same substance, the MFI [34] was 6810 MFI, the MFI [35] was 5980 MFI and the MFI [36] was 1860 MFI. For the same substance, the MFI [37] was 0 MFI, the MFI [38] was 0 MFI and the MFI [39] was 1210 MFI. For the same substance, the MFI [40] was 0 MFI, the MFI [41] was 53 MFI and the MFI [42] was 347 MFI. For the same substance, the MFI [43] was 91 MFI, the MFI [44] was 1030 MFI and the MFI [45] was 0 MFI. For the same substance, the MFI [46] was 0 MFI, the MFI [47] was 841 MFI and the MFI [48] was 1420 MFI. For the same substance, the MFI [49] was 0 MFI and the MFI [50] was 7800 MFI.
Substance “IVIg Octagam (Octapharma, Lachen, Switzerland) (antibody)” has a Difference % (iBead vs regular bead) [1] of -100%, a Difference % (iBead vs regular bead) [2] of -100% and a Difference % (iBead vs regular bead) [3] of -95%. For the same substance, the MFI [4] was 650 MFI, the MFI [5] was 1620 MFI and the MFI [6] was 1110 MFI. The MFI [7] was 873 MFI, the MFI [8] was 976 MFI and the MFI [9] was 1440 MFI. It also gave an MFI [11] of 510 MFI, an MFI [12] of 255 MFI and an MFI [13] of 1170 MFI. The MFI [14] was 1620 MFI, the MFI [15] was 2710 MFI and the MFI [16] was 586 MFI. It also gave an MFI [17] of 1220 MFI, an MFI [18] of 1510 MFI and an MFI [19] of 15300 MFI. For the same substance, the MFI [20] was 9260 MFI, the MFI [21] was 9880 MFI and the MFI [22] was 10600 MFI. It also gave an MFI [23] of 8430 MFI, an MFI [24] of 5550 MFI and an MFI [25] of 2340 MFI. It also gave an MFI [26] of 7720 MFI, an MFI [27] of 5030 MFI and an MFI [28] of 4820 MFI. It also gave an MFI [29] of 5610 MFI, an MFI [30] of 8660 MFI and an MFI [31] of 8980 MFI. For the same substance, the MFI [33] was 3350 MFI, the MFI [34] was 9380 MFI and the MFI [35] was 8770 MFI. It also gave an MFI [36] of 1090 MFI, an MFI [37] of 0 MFI and an MFI [38] of 0 MFI. The MFI [39] was 880 MFI, the MFI [40] was 0 MFI and the MFI [41] was 0 MFI. The MFI [42] was 0 MFI, the MFI [43] was 0 MFI and the MFI [44] was 52 MFI. For the same substance, the MFI [45] was 0 MFI, the MFI [46] was 0 MFI and the MFI [48] was 1380 MFI. It also gave an MFI [49] of 114 MFI.
